The supplement of paper PMC9112550, “Optimization of the antimicrobial peptide Bac7 by deep mutational scanning” (BMC Biology, 2022)

system: Escherichia coli TOP10; assay: shrunken log2 fold change of peptide-encoding DNA abundance (4.5 h post-induction vs induction); higher = less antimicrobial activity (less host growth inhibition); details: time post-induction: 4.5 h; library: site-saturation at positions 5, 18, 19, 20
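Note: peptides expressed intracellularly from a pBAD plasmid library in pooled LB shake-flask culture, induced with 0.3% L-arabinose, DNA abundance read by NGS, three biological replicates, DESeq2 with apeglm shrinkage.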

Sequence	shrunken log2 fold change
RRIRKRPPRLPRPRPRPDDSPRP	-0.0813
RRIRRRPPRLPRPRPRPNYSPRP	-0.0871
RRIRTRPPRLPRPRPRPNHYPRP	-0.679
RRIRSRPPRLPRPRPRPKCTPRP	-0.0418
RRIRMRPPRLPRPRPRPTEWPRP	0.555
RRIRQRPPRLPRPRPRPHSAPRP	-0.0562
RRIRPRPPRLPRPRPRPGTKPRP	0.453
RRIRDRPPRLPRPRPRPEPFPRP	-0.137
RRIRHRPPRLPRPRPRPGFFPRP	0.0196
RRIRTRPPRLPRPRPRPEVCPRP	0.212
RRIRTRPPRLPRPRPRPWMPPRP	-0.247
RRIRFRPPRLPRPRPRPAHDPRP	0.0907
RRIRHRPPRLPRPRPRPYSWPRP	-0.345
RRIRERPPRLPRPRPRPSNEPRP	-0.17
RRIRHRPPRLPRPRPRPHYQPRP	0.0121
RRIRDRPPRLPRPRPRPNTFPRP	-0.0294
RRIRKRPPRLPRPRPRPTDYPRP	0.124
RRIRYRPPRLPRPRPRPQKMPRP	-0.295
RRIRHRPPRLPRPRPRPYYKPRP	-0.913
RRIRERPPRLPRPRPRPGKDPRP	-0.24
RRIRVRPPRLPRPRPRPHLRPRP	0.248
RRIRVRPPRLPRPRPRPFHYPRP	-0.318
RRIRNRPPRLPRPRPRPDANPRP	-0.318
RRIRVRPPRLPRPRPRPFWAPRP	0.182
RRIRYRPPRLPRPRPRPMYCPRP	-0.00674

Sequence	shrunken log2 fold change
RRIRYRPPRLPRPRPRPWVLPRP	-0.223
RRIRKRPPRLPRPRPRPRETPRP	0.0512
RRIRSRPPRLPRPRPRPNGGPRP	-0.0284
RRIRMRPPRLPRPRPRPPCMPRP	0.181
RRIRCRPPRLPRPRPRPAYVPRP	-0.288
RRIRTRPPRLPRPRPRPKCIPRP	-0.292
RRIRWRPPRLPRPRPRPEYFPRP	-0.0445
RRIRTRPPRLPRPRPRPATRPRP	0.0996
RRIRMRPPRLPRPRPRPDCVPRP	1.71
RRIRSRPPRLPRPRPRPFPRPRP	0.356
RRIRERPPRLPRPRPRPYTMPRP	-0.0431
RRIRNRPPRLPRPRPRPCEGPRP	0.111
RRIRERPPRLPRPRPRPYDFPRP	-0.0231
RRIRARPPRLPRPRPRPNERPRP	0.531
RRIRWRPPRLPRPRPRPCAMPRP	-0.272
RRIRYRPPRLPRPRPRPHTMPRP	-0.604
RRIRGRPPRLPRPRPRPLEGPRP	0.0436
RRIRYRPPRLPRPRPRPDGVPRP	-0.0741
RRIRERPPRLPRPRPRPFWNPRP	-0.51
RRIRRRPPRLPRPRPRPETPPRP	1.12
RRIRPRPPRLPRPRPRPDKGPRP	0.118
RRIRHRPPRLPRPRPRPQDWPRP	0.0899
RRIRPRPPRLPRPRPRPILYPRP	-0.299
RRIRKRPPRLPRPRPRPSAPPRP	0.504
RRIRARPPRLPRPRPRPMTEPRP	0.356

Sequence	shrunken log2 fold change
RRIRNRPPRLPRPRPRPMNGPRP	0.015
RRIRYRPPRLPRPRPRPGIAPRP	-0.269
RRIRCRPPRLPRPRPRPCSCPRP	-1.33
RRIRCRPPRLPRPRPRPDFVPRP	-0.196
RRIRFRPPRLPRPRPRPENPPRP	-0.0301
RRIRLRPPRLPRPRPRPRFGPRP	0.145
RRIRVRPPRLPRPRPRPRHPPRP	0.278
RRIRRRPPRLPRPRPRPFECPRP	0.036
RRIRVRPPRLPRPRPRPTLSPRP	-0.0525
RRIRFRPPRLPRPRPRPKCPPRP	-0.128
RRIRKRPPRLPRPRPRPGNAPRP	0.418
RRIRWRPPRLPRPRPRPAWAPRP	0.579
RRIRYRPPRLPRPRPRPTNDPRP	-0.404
RRIRYRPPRLPRPRPRPSDSPRP	-0.191
RRIRNRPPRLPRPRPRPSHPPRP	0.186
RRIRHRPPRLPRPRPRPFLYPRP	-0.624
RRIRPRPPRLPRPRPRPNMVPRP	-0.772
RRIRFRPPRLPRPRPRPGGFPRP	0.42
RRIRFRPPRLPRPRPRPVLCPRP	-0.221
RRIRARPPRLPRPRPRPQMLPRP	1.97
RRIRNRPPRLPRPRPRPVVAPRP	-0.0949
RRIRLRPPRLPRPRPRPHMTPRP	-0.466
RRIRFRPPRLPRPRPRPEVVPRP	0.723
RRIRMRPPRLPRPRPRPPGLPRP	0.702
RRIRSRPPRLPRPRPRPTKFPRP	0.0549

Sequence	shrunken log2 fold change
RRIRMRPPRLPRPRPRPNKIPRP	0.0176
RRIRNRPPRLPRPRPRPPCMPRP	-0.0283
RRIRCRPPRLPRPRPRPIHLPRP	-0.193
RRIRRRPPRLPRPRPRPLNCPRP	-0.304
RRIRKRPPRLPRPRPRPQCAPRP	0.28
RRIRHRPPRLPRPRPRPDGAPRP	-0.0729
RRIRGRPPRLPRPRPRPKYKPRP	0.0104
RRIRKRPPRLPRPRPRPKRGPRP	0.781
RRIRFRPPRLPRPRPRPDCRPRP	-0.309
RRIRYRPPRLPRPRPRPWHHPRP	-0.271
RRIRIRPPRLPRPRPRPKVYPRP	-0.394
RRIRERPPRLPRPRPRPSRAPRP	0.12
RRIRIRPPRLPRPRPRPHWWPRP	0.133
RRIRWRPPRLPRPRPRPQGIPRP	0.102
RRIRGRPPRLPRPRPRPTHCPRP	0.433
RRIRKRPPRLPRPRPRPWDPPRP	-0.235
RRIRHRPPRLPRPRPRPKQNPRP	0.139
RRIRYRPPRLPRPRPRPDMLPRP	-0.0808
RRIRIRPPRLPRPRPRPSYAPRP	-0.0605
RRIRLRPPRLPRPRPRPNHIPRP	-0.671
RRIRPRPPRLPRPRPRPEHVPRP	0.0556
RRIRFRPPRLPRPRPRPPMHPRP	0.162
RRIRRRPPRLPRPRPRPIKQPRP	0.197
RRIRMRPPRLPRPRPRPNRAPRP	0.239
RRIRFRPPRLPRPRPRPDKRPRP	-0.0786

Sequence	shrunken log2 fold change
RRIRSRPPRLPRPRPRPTFVPRP	-0.15
RRIRIRPPRLPRPRPRPWKRPRP	-0.0143
RRIRMRPPRLPRPRPRPFASPRP	0.0812
RRIRSRPPRLPRPRPRPKLSPRP	0.352
RRIRIRPPRLPRPRPRPFVVPRP	-0.235
RRIRHRPPRLPRPRPRPNQGPRP	-0.479
RRIRNRPPRLPRPRPRPLPKPRP	0.402
RRIRQRPPRLPRPRPRPMQKPRP	0.0524
RRIRNRPPRLPRPRPRPCFKPRP	-0.0138
RRIRCRPPRLPRPRPRPYLYPRP	-1.01
RRIRERPPRLPRPRPRPNDPPRP	-0.488
RRIRSRPPRLPRPRPRPTQNPRP	0.375
RRIRQRPPRLPRPRPRPSKIPRP	-0.143
RRIRPRPPRLPRPRPRPYLRPRP	0.0823
RRIRMRPPRLPRPRPRPHATPRP	2.78
RRIRNRPPRLPRPRPRPFKSPRP	-0.014
RRIRGRPPRLPRPRPRPSAHPRP	1.12
RRIRGRPPRLPRPRPRPGTKPRP	0.652
RRIRYRPPRLPRPRPRPCKQPRP	0.00515
RRIRQRPPRLPRPRPRPEIKPRP	-0.342
RRIRNRPPRLPRPRPRPSHTPRP	-0.412
RRIRARPPRLPRPRPRPGLPPRP	0.709
RRIRNRPPRLPRPRPRPWCSPRP	-0.535
RRIRNRPPRLPRPRPRPEQWPRP	-0.0114
RRIRPRPPRLPRPRPRPMSTPRP	-0.229

Sequence	shrunken log2 fold change
RRIRIRPPRLPRPRPRPKYHPRP	-0.532
RRIRWRPPRLPRPRPRPLIGPRP	0.0414
RRIRARPPRLPRPRPRPCYAPRP	-0.26
RRIRTRPPRLPRPRPRPGDQPRP	-0.0663
RRIRPRPPRLPRPRPRPFHKPRP	-0.453
RRIRSRPPRLPRPRPRPDFYPRP	-0.0521
RRIRPRPPRLPRPRPRPYFRPRP	-0.463
RRIRLRPPRLPRPRPRPFIIPRP	-0.271
RRIRKRPPRLPRPRPRPETIPRP	0.0906
RRIRIRPPRLPRPRPRPQDMPRP	-0.0502
RRIRLRPPRLPRPRPRPVPVPRP	-0.0404
RRIRCRPPRLPRPRPRPKYWPRP	0.22
RRIRLRPPRLPRPRPRPQREPRP	0.144
RRIRPRPPRLPRPRPRPEISPRP	-0.00759
RRIRRRPPRLPRPRPRPSQNPRP	0.0754
RRIRQRPPRLPRPRPRPSMFPRP	-0.667
RRIRTRPPRLPRPRPRPYNGPRP	-0.203
RRIRARPPRLPRPRPRPQHGPRP	-0.265
RRIRLRPPRLPRPRPRPMRYPRP	0.0322
RRIRKRPPRLPRPRPRPQSKPRP	0.116
RRIRGRPPRLPRPRPRPFEDPRP	0.392
RRIRHRPPRLPRPRPRPWHNPRP	-0.261
RRIRHRPPRLPRPRPRPKMGPRP	-0.00141
RRIRTRPPRLPRPRPRPMSDPRP	-0.0819
RRIRVRPPRLPRPRPRPGDCPRP	0.404
